According to publication PMC12311110 (Nature Communications, 2025):

B1: hTBC1D13TBC: recombinant full-length human TBC1D13, RAB35 GAP, expressed in bacteria (protein)
chain: MSSLHKSRIADFQDVLKEPSIALEKLRELSFSGIPCEGGLRCLCWKILLNYLPLERASWTSILAKQRELYAQFLREMIIQPGIAKANMGVSREDVTFEDHPLNPNPDSRWNTYFKDNEVLLQIDKDVRRLCPDISFFQRATDYPCLLILDPQNEFETLRKRVEQTTLKSQTVARNRSGVTNMSSPHKNSVPSSLNEYEVLPNGCEAHWEVVERILFIYAKLNPGIAYVQGMNEIVGPLYYTFATDPNSEWKEHAEADTFFCFTNLMAEIRDNFIKSLDDSQCGITYKMEKVYSTLKDKDVELYLKLQEQNIKPQFFAFRWLTLLLSQEFLLPDVIRIWDSLFADDNRFDFLLLVCCAMLMLIREQLLEGDFTVNMRLLQDYPITDVCQILQKAKELQDSK
modifications: left off: GST, end not stated, cleaved
notes: recombinant full-length human TBC1D13, RAB35 GAP, expressed in bacteria
B2: GFP-RAB10T23N (protein, UniProt P61026 1-200, looked up, variant T23N)
Ras-related protein Rab-10: MAKKTYDLLFKLLLIGDSGVGKNCVLFRFSDDAFNTTFISTIGIDFKIKTVELQGKKIKLQIWDTAGQERFHTITTSYYRGAMGIMLVYDITNGKSFENISKWLRNIDEHANEDVERMLLGNKCDMDDKRVVPKGKGEQIAREHGIRFFETSAKANINIEKAFLTLAEDILRKTPVKEPNSENVDISSGGGVTGWKSKCC
modifications: GFP fusion

How the values were obtained:
[1] = molecular target: T1, hRetromer (Homo sapiens, UniProt O75436+Q96QK1+Q9UBQ0); assay: Isothermal titration calorimetry (ITC) of binding to Retromer; settings: ITC, 25 °C, 530 µM TBC1D13 titrated into 14 µM Retromer, mean of triplicate titrations
T1 construct: GST (pGEX4T-2, thrombin site plus linker) (N, cleaved yes); made in house; host or cells: E. coli BL21 (DE3)
Method: All the bacteria constructs were expressed in BL21 (DE3) cells using the autoinduction method. In brief, cultures grown in complex medium were incubated at 37 °C for 4 h, followed by overnight growth at 20 °C before harvesting for purification. […] In all cases, the soluble fractions clarified by centrifugation were loaded onto pre-equilibrated glutathione sepharose (GE healthcare) for initial purification. For Retromer, an additional Talon® resin purification step was performed to ensure the correct stoichiometry. GST-tag removal was carried out co-column overnight by adding thrombin for Human Retromer and PreScission protease for TBC1D13. The GST-tag removed fraction was further purified by size-exclusion chromatography (SEC) using a Superdex 200 (16/600) column (GE Healthcare) equilibrated with buffer containing 50 mM Tris-HCl pH 7.5, 200 mM NaCl, 2 mM β-ME.
The effect of cyclic peptide was assessed by pre-mixing 140 µM RT-D1 into 14 µM Retromer before titrating with 1 mM of native DENND4C1189-1206 peptide. For the binding experiment between Retromer and TBC1D13, 530 µM of TBC1D13 was titrated into 14 µM Retromer. The effect of the cyclic peptide was tested using the same concentration of RT-D1 as described above. All ITC experiments consisted of an initial 0.4 μl (not used in data processing), followed by 12 serial injections of 3.22 μl each with 180 sec intervals. […]

[2] = test system: GLUT1, LAT1, KIDINS220, ATP7A, CTR1 surface levels in HeLa cells; assay: Surface biotinylation and streptavidin purification: cell surface protein levels; assay type: cell-based, human; settings: Hela cells transduced with GFP-RAB10 T23N; PAR+GFP = 100; mean of n = 3
Method: For every kind of protein extraction, buffers were pre-chilled, and cells and samples placed on ice. For basic western blot (WB), cells were lysed in ~ pH 7.2 phosphate buffered saline (PBS) with 1% (v/v) Triton X-100 and protease inhibitors (Thermo Fisher, A32955). The protein concentration was determined with a bicinchoninic acid (BCA) assay kit (Thermo Fisher, 23225) and equal amounts were denaturised (LDS Sample buffer (Thermo Fisher, NP0008), 3% β-mercaptoethanol (Sigma-Aldrich, M6250), 10 min at 95 °C) and resolved by SDS-PAGE on NuPAGE 4–12% precast gels (Invitrogen, NP0336BOX). Protein samples were then transferred onto methanol-activated polyvinylidene fluoride (PVDF) membrane (Immobilon-FL membrane, pore size 0.45μm; Millipore, IPFL00010). The membrane was blocked, then sequentially labelled with primary and secondary antibodies. Fluorescence detected by scanning with a LI-COR Odyssey scanner and Image Studio analysis software (LI-COR Biosciences). Typically, we performed WB in where a single blot is simultaneously probed with antibodies against 2 proteins of interest (distinct antibody species), followed by visualisation with the corresponding secondary antibodies conjugated to distinct spectral dyes. All steps were carried out on ice to prevent surface protein internalisation. […] The protein concentration was determined by BCA. […]

| Molecule | -TΔS [1] [kcal/mol] | Kd ([1]; single-site binding model, read-out: Kd) [µM] | CTR1 Surface (LAT1 normalized) [2] |
| --- | --- | --- | --- |
| B1 | 1.0 ± 1.4 | 6.3 ± 1.2 |  |
| B2 |  |  | 77.05 |
